Results taken from the DeepSol protein solubility set.

Test: soluble on expression in E. coli; label from the status in PepcDB or PDB records

Sequence | soluble on expression in E. coli
MRNVMKATTLESKFPLLAVENGCIVSKEADVTVAFRVELPELFSVTGSEYEAVHSAWHKAVKVLPEYSIVHKQDFFIEEKYRPETDRDDLSFLSRSFERHFNERPFLNHFCYLFLTKTTKARSRQESTFSTLCKGRLVPKEIEDRETVTRFLEAVGQFEKIMNDSGFVTLRRLTTDEITGTETAAGIVEKYLSLSQHDTTVLKDIQLNPEEMRIGDDILCLHTLSDTEDLPGKVATDSRYERLSTDRSDCRLSFAAPVGLLLDCNHCYNQYIFIDDHGENLKRFEQTARNMHSLSRYSRSNQINKAWIEEYLNEAHSKGLTSVRCHCNVMAWSDDREELRRIKNEVGSQLALMECKPRHNTVDVPTLFWAAIPGNEGDFPFEESFYTFIPQALCFFTEETNYKDSLSPFGIKMADRMTGRPLHLDISDLPMKKGVISNRNKFVLGPSGSGKSFFMNHLVRQYYEQNSHIVLIDTGNSYQGLCELIHRKTKGEDGIYYTYTEEKPISFNPFFTDDYKFSVEKKDSIKTLLLALWKGEDEKVTKTESGELGSAVSAYIRRIQQNRDIAPSFDTFYEYMLNDYRKELAARDIKVSREDFNIDNFLTTLRQYYKGGRYDFLLNSNENIDLLHKRFIVFEIDAVKDNAELFPVVTIIIMEAFINKLRRLKGVRKMLICEEAWKALSSPSMSEYLKYLYKTVRKYFGEAIVVTQEVDDIISSPIVKEAIITNSDCKILLDQKKYMNKFDGIQSMLGLTDKEKSQILSINLANHPGRKYKEVWIGLNGVQSAVYATEVSAAEYLTYTTEESEKTEVFALAEELGGDLELAIKRLAETKYK | not soluble
MSLKFIEEVVVEEFLPTFRSLLAADLRERGLTQHEVAELLGVSQSAVSKYAHGDVTTDDEIAADDRVQELVERTGSGLATGNVSQVQALVEAEVLVRELSTSSDILAERHEAANPALADYDGDFTVHDADSEVRVREHVLSSVRRGVRMLERTSGFATQIPAVGANLVECTPEADTVEDVAGVPGRVLDVMGRTEIPAEPEFGVSAYVATVLLDARAAGVDAHAALNIAYSADTVAALADAGYAVVEFEPEGESTTDDHHIRDAVRDADAVDVLYQTGGYGVEPIVYVLAENAPDAVRMARGLEGHHHHHH | soluble
MLEVLVALAIFATAAISVIRSVSQHINTVSYLEEKMFAAMVVDNQMANVMLDTGALKAKNGTEELAGRTWYWKVTPVATTQPLLKAFDVSVATAKNASPVVTVRSYVAQ | not soluble
MSLDFHGVFPYLVSPVDAEGRVRADVMGRLCDDLIQAGVHGLTPLGSTGEFAYLGTAQREAVVRATIEAAQRRVPVVAGVASTSVADAVAQAKLYEKLGADGILAILEAYFPLKDAQIESYFRAIADAVEIPVVIYTNPQFQRSDLTLDVIARLAEHPRIRYIKDASTNTGRLLSIINRCGDALQVFSASAHIPAAVMLIGGVGWMAGPACIAPRQSVALYELCKAQRWDEALMLQRKLWRVNEAFAKFNLAACIKAGLALQGYDVGDPIPPQAALTAEERKAVEKVLAEIAEGHHHHHH | soluble
MGSDKIHHHHHHMTPNIYQQLGLKKVINACGKMTILGVSSVAPEVMQATARAASAFVEIDALVEKTGELVSRYTGAEDSYITSCASAGIAIAVAAAITHGDRARVALMPDSSGMANEVVMLRGHNVDYGAPVTSAIRLGGGRIVEVGSSNLATRWQLESAINEKTAALLYVKSHHCVQKGMLSIDDFVQVAQANHLPLIVDAAAEEDLRGWVASGADMVIYSGAKAFNAPTSGFITGRKTWIAACKAQHQGIARAMKIGKENMVGLVYALENYHQGQTTVTAAQLQPVAEAISAIHGLYADIEQDEAGRAIWRIRVRVNASELGLNAQDVEAQLRGGEIAIYARKYQLHQGVFSLDPRTVAEGEMALIVARLREIAEHAAD | not soluble
MKRLRSKMTTEELAECLGVARQTVNRWIREQHWKTEKFPGVKGGRARLIHIDASVREFILNIPAFRKLPAFYQAEEAFAEYANAAHSHAYRQIIDAVENMSAQEQEKLALFLSREGIRGFLTRLGINEAD | not soluble
MSLGDQYTYYMNEKEFSDFKEKSQGNYMGIGIQVAVKDGKIVVISPIQGGPAEKAGIKTGDIILKVNGEPVSGNELDKAVSMMKGTTKENIKLTLYREGHHHHPPLIRIRAPSTSLRPHSSTTTTTTEIRLLTKPERKLSWLLPPLSNN | soluble
MGSDKIHHHHHHMMSEEKILSVDFTQEDAYTEILPRSPLVSSYHAQWQGLRLDVHQQPGHETPEHSPQQHVLTVSLEQQIVRSERILDGRLQYENIAKGDVAIIPAQTRHISRWQSEAKFLVLSMEPAFFTRMVIEAGDLQKIEIKPRFAAPDPLIQQIGLALQTELESEHKGSSIYIESLTTTLCIHLLKHYCVTGGTILDDHHHKGLSHWKLRQAISYIHENLDQDLTLVDISTAVGMSMYYFSRQFKQSTGFAPHQYVMNCRIERAKKLLGSTNKTIEQICTQVGFQSQSHFTNVFRKLMGITPRVYREQVKT | not soluble
MGGLFTGIALDSAGHDVTIAEQSAGDLRSRGGGIVAQQSIRQFLSRHDIVDPANITTRASERRFLTADGDVRTSTPDSMVFTSWDAVYRQLRAAFPDDRYHTGQTVTGVRATDGTVTFSDGDRTTADLVVAADGGQSTARAQLFPDADPEFADYVAWRGVVSEAELSDAVIDAFDGRFTFYQGEQMLILAYFIPGEDGNTAPGDRRLNWVWYDTLSGRERETIFTDTTGTSQQFSVSPGQLRDPVESHQRERAAETLPPVFTDLVATTAAPFVQAIYDLQSPQMTVDRVCLVGDAAFVARPHTAAGTSKAASDAVELKAALDRHSSLGGALASWDDARTDYGARLVAQGKRMGDERLSLGSLEHHHHHH | not soluble
THALEPSKPLAHDEKPITIEVVSMDWKWFFIYPEQGIATVNEIAFPANTPVYFKVTSNSVMHSFFIPRLGSQIYAMAGMQTRLHLIANEPGTYDGICAEICGPGHSGMKFKAIATPDRAAFDQWVAKAKQSPNTMSDMAAFEKLAAPSEYNQVEYFSNVKPDLFADVINKFMAHGKSMDMTQPEGEHSAHEGMEGMDMSHAESAH | soluble
MSLSLLSKFSRGVPSPALAHIAKRTFSSVNFSQILRRPQNSSLRLRLVRNISNSNPLPKMTEAGKNIVLKRHDLIVKGAQDAREYRGLELTNGIRVLLVSDPTTDKSAAALDVKVGHLMDPWELPGLAHFCEHMLFLGTAKYPSENEYSKFLAAHAGSSNAYTSSDHTNYHFDVKPDQLPGALDRFVQFFLSPQFTESATEREVCAVDSEHSNNLNNDLWRFLQVDRSRSKPGHDYGKFGTGNKQTLLEDARKKGIEPRDALLQFHKKWYSSDIMTCCIVGKEPLNVLESYLGTLEFDAIENKKVERKVWEEFPYGPDQLAKRIDVVPIKDTRLVSISFPFPDLNGEFLSQPGHYISHLIGHEGPGSLLSELKRLGWVSSLQSDSHTQAAGFGVYNVTMDLSTEGLEHVDEIIQLMFNYIGMLQSAGPKQWVHDELAELSAVKFRFKDKEQPMTMAINVAASLQYIPFEHILSSRYLLTKYEPERIKELLSMLSPANMQVRVVSQKFKGQEGNTNEPVYGTEMKVTDISPETMKKYENALKTSHHALHLPEKNEYIATNFDQKPRESVKNEHPRLISDDGWSRVWFKQDDEYNMPKQETKLALTTPMVAQNPRMSLLSSLWLWCLSDTLAEETYNADLAGLKCQLESSPFGVQMRVSNRREAERHASLTLHVYGYDEKQALFAKHLANRMTNFKIDKTRFDVLFESLKRALTNHAFSQPYLLTQHYNQLLIVDKVWSKEQLLAVCDSVTLEDVQGFAKEMLQAFHMELFVHGNSTEKEAIQLSKELMDVLKSAAPNSRPLYRNEHNPRRELQLNNGDEYVYRHLQKTHDVGCVEVTYQIGVQNTYDNAVVGLIDQLIREPAFNTLRTNEALGYIVWTGSRLNCGTVALNVIVQGPKSVDHVLERIEVFLESVRKEIAEMPQEEFDNQVSGMIARLEEKPKTLSSRFRRFWNEIECRQYNFARREEEVALLKTIKKDDVLELFDKKIRKDAAERRKLAVFVHGKNEDQEAVNTIIKKNAESGKKEKEVLYSDQLRQFLPLYGRPIAAIDLKPIGVDPLEHQETTKSKY | not soluble
AQAEASSAQAAQQKNFNIAAQPLQSAMLRFAEQAGMQVFFDEVKLDGMQAAALNGSMSVEQGLRRLIGGNPVAFRLQPQGQIVLSRLPTANGDGGALALDSLTVLGAGGNNANDWVYDEPRSVSVISREQMDNRPARHAADILEQTTGAYSSVSQQDPALSVNIRGIQDYGRVNMNIDGMRQNFQKSGHGQRNGTMYIDSELLSGVTIDKGTTGGMGSAGTLGGIATFNTVSASDFLAPGKELGGKLHASTGDNGTHFIGSGILALGNETGDILLAASERHLGDYWPGNKGDIGNIRINNDTGNYDRYAESIKNNKIPDTHYRMHSRLAKVGWNLPANQRLQLSYLQTQTASPIAGTLTNLGTRPPYELGWKRTGYTDVMARNAAFDYSLAPEDVDWLDFQAKLYYVDTQDDSDTYSTSSLLDNGYATRTRLRTYGAQAQNTSRFSLAPGHDFRANYGLEFYYDKATSDSSRQGMEGVTPAGNRSVASLFANLTYDYDGWLTLEGGLRYDRYRLRGQTGLSYPDLAKDGQRYTIDNPCKALRLTGCSTTTREDWDVDRDQGKLSPTLAVAVRPGVEWLELYTTYGKSWRPPAITETLTNGSAHSSSTQYPNPFLQPERSRAWEVGFNVQQPDLWFEGDRLVAKVAYFDTKVDNYINLAIDRNKPGLVQPSIGNAAYVNNLSKTRFRGLEYQLNYDAGVFYADLTYTHMIGKNEFCSNKAWLGGRLRYGDGSRRGNFYVEPDAASNDFVTCDGGTQFGSAAYLPGDRGSVTLGGRAFDRKLDAGVTVRFAPGYQDSSVPSNYPYLADWPKYTLFDLYASYKLTDSLTLRGSVENLTNRAYVVSYGETLANTLGRGRTVQGGVEYRF | soluble
SGCGGSRADAIEPRYYESWTRETESTWLTYTDSDAPPSAAAPDSGPEAGGLHSGMLEDGLPSNGVPRSTAPGGIPNPEKKTNCETQCPNPQSLSSGPLTQKQNGLQTTEAKRDAKRMPAKEVTINVTDSIQQMDRSRRITKNCVN | soluble
MSLTSSQKDIINDILSAMQCYPENEAFIIDDKHYTYAQLGEITASITHSLSEIKDEKIGIVAENRIETYAAILAVLAGGKTYVILHPAYPEERNLKIAALAGLRTLLCTSDTDRSAFGTGHFRIIDTDRLPGKAQSEQQSHSSNEERNAYIIFTSGSTGEPKGVPITRANLNAFYRAYSLLDWNLDEHDRMLQMFELTFDVSVVSLLYPLTLGAAVYTVGHQDVKHFKVFELLEKYQLTFATVTPSLLQLLSPYFDEINLPSLKYLGVSAEASQTELLERFRKSVPNATFINLYGPTEATIYCTCYRIPASDKCKHYNGMVAIGKPFPGIRAIIADEEGNELPQGETGELWVSGRQVMKGYLDDPEKSALVLIHRPDGQIYYRTGDLCILDSDGDIIYCGRKDYQVKIQGFRIELSEIEYTAQSFFKTPCSVAAVPLLCDGICNELHLAVETTECTQSALIEYLKEKLPKYMLPKQIHCISQFPVTNSNKTDRKKIAELIKEGHHHHHH | soluble
MDDERKRKKYTLYLHPEKAADFQTLEAIESVPRSERGELFRNAFISGMALHQLDPRLPVLLTAILSEEFSADQVVTLLSQTTGWKPSQADIRAVLTELGASQSVEKMPPSATDSVQEAMNDVRLKMKKLF | soluble
MILMESLSVSGTETVSVPQDWNVMDVIGAKSWYVVSEKEPSWEEIIKGKTVEAVDEPPSRFEVISTSPLVLKKDTKYYIYNSTLKKWLVLEYEEPQSSRKLVMNGQGKVTLLLRSSGSWNVRYYLFEDTLTGNAFLSVSGVESADVFLISRPAGEASIWKGMYLSASPSREMPEEHESEEVKVYHLGKVKDLDKSPVVNLIETNLFNVNEYYSYSFAVNDSIFDYQKTTFTRSFMTPVDLPGGTVSIFSNISGVDIMIGETSIPDTPKNSLLELPVTDSWDVRVKGEILDERNYKDTYEYERTWRVTVQNLNETESKVRINIYGNMMRLLRSSIKPLKETSDQIVFELIVPPNSEKEFEFKVRSGWLEHHHHHH | not soluble
